In data set [1] the test system is Cc1ccc(O)c(O)c1CC[C@@H]1C(=O)CC[C@]2(C)C(=O)CC[C@@H]12. Kind of data set: purified protein. To be noted: pH 7.0; 25.0 °C.
The subject of the next data set is Oc1cccc(-c2ccccc2)c1O. Kind of data set: purified protein. The conditions noted are these: pH 7.0; 25.0 °C.
Data set [2] relates to Cc1cc(Cl)c(O)c(O)c1CCc1ccccc1Cl. The data set is described as follows: purified protein. The conditions noted are these: pH 7.0; 25.0 °C.
The subject of data set [3] is Cc1ccc(O)c(O)c1CCc1ccccc1Cl. The data set is described as follows: purified protein. To be noted: pH 7.0; 25.0 °C.
In a further data set the target is T1, HsaC (Mycobacterium tuberculosis, UniProt P9WNW7).
T1 construct: full-length, recombinant in E. coli, purified anaerobically, no tag mentioned; Fe(II) enzyme; gene 903 bp; octamer
It counts as biochemical. To be noted: 20 mM HEPES, 80 mM NaCl, pH 7.0, 5% O2, 25°C; slow substrate, mechanism-based oxidative inactivation.

Here are results for two molecules from publication PMC2652662, “Studies of a Ring-Cleaving Dioxygenase Illuminate the Role of Cholesterol Metabolism in the Pathogenesis of Mycobacterium tuberculosis” (PLoS Pathogens, 2009).

T1 sequence (P9WNW7 whole entry): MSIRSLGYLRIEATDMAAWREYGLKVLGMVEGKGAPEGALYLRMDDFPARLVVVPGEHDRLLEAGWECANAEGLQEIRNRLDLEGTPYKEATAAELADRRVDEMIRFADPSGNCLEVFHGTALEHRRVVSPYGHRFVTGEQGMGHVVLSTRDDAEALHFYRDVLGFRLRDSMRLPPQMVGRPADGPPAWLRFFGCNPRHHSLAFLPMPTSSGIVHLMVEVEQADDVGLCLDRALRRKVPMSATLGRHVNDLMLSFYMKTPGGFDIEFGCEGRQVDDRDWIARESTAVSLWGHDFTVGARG

As a reminder, the kcat/Km is the second-order rate constant that governs catalysis at low substrate concentration. On to HsaC (Mycobacterium tuberculosis H37Rv), for which the Km in data set [1] is 1.1 (0.2) µM; with Oc1cccc(-c2ccccc2)c1O it was 10 (2) µM; in data set [2], 3.2 (0.3) µM; in data set [3] it was 4.8 (0.6) µM. Moreover, the kcat/Km in data set [1] came out at 1.5e+07 M⁻¹ s⁻¹; with Oc1cccc(-c2ccccc2)c1O, 160000 M⁻¹ s⁻¹; in data set [2], 85000 M⁻¹ s⁻¹; in data set [3] it was 1.4e+06 M⁻¹ s⁻¹.
Consider `Oc1cccc(-c2c(Cl)cccc2Cl)c1O` [2′,6′-diCl DHB], for which the Km at HsaC amounted to 6.7 µM.
